The text below walks through data of US11013692B2, “Method of drug formulation based on increasing the affinity of crystalline microparticle surfaces for active agents” (MannKind Corporation, priority 2005, dated 2021).

Series [1] is described as follows: Insulin binding to FDKP particles at different pH (unbound insulin in supernatant by HPLC). In kind it is physicochemical.
Series [2] can be described thus: Ultrasonic glacial acetic acid titration of FDKP particles + insulin. In kind it is physicochemical. Conditions: 10 mg/mL FDKP, 1 mg/mL insulin; reduced interaction below about pH 2.9. As for the experimental part: This suspension was introduced into an ultrasonic spectrometer. While stirring gently, glacial acetic acid was gradually added in 5 μL aliquots to lower the pH. At each step in the titration ultrasonic data was collected.
The change in ultrasonic velocity was related (proportional) to the amount of surface area (hydration water) of the particles and/or macromolecules in the sample. […] This additional surface area was from free insulin in the suspension.

The nature of series [3]: pH dependence of adsorption onto FDKP microparticles with excess protein (retentate mass ratio by HPLC). In kind it is physicochemical. Conditions: for type of monolayer formed: 5 mg/mL FDKP, 2 mg/mL protein. As for the experimental part: (An excess of protein, as referred to herein, is that amount over what is believed to be necessary to form a monolayer covering the accessible surface of the FDKP microparticle). After incubation, non-adsorbed protein was removed by filtration. The solids retained on the filter (retentate) were dissolved and the amounts of FDKP microparticles and protein retained on the filter were quantitated by HPLC. The protein/particle mass ratio was determined from this quantitation.
Insulin was adsorbed (loaded) onto FDKP microparticles in a pH-controlled process by mixing an aqueous suspension of FDKP microparticles with an aqueous solution of insulin. […] The solid particles with adsorbed insulin were recovered from the filter (retentate), dissolved and collected. The amounts of insulin and dissolved FDKP microparticles were quantitated by HPLC. The amount of adsorbed insulin was calculated as a fraction of the total mass of retentate.

The nature of series [4]: Resuspension of dried active agent-coated FDKP microparticles in acid solution or water (filtration, HPLC). In kind it is physicochemical. Conditions: for Resuspended in Acidic solution, integrated HPLC peak area / Resuspended in water, integrated HPLC peak area: filtrate; for Resuspended in Acidic solution, integrated HPLC peak area / Redissolved after filtering away acidic solution, integrated HPLC peak area: final pH about 2.0, 215 nm; for Resuspended in water, integrated HPLC peak area / Redissolved after filtering away water, integrated HPLC peak area: final pH about 4.5, 215 nm; for Redissolved after filtering away acidic solution, integrated HPLC peak area / Redissolved after filtering away water, integrated HPLC peak area: retained particles dissolved; for Active Agent Standard solution, integrated HPLC peak area: 215 nm. As for the experimental part: The solvent was filtered from these suspensions and the retained particles were dissolved and collected. The amount of active agent in all of these samples was quantitated by HPLC.
For each of the lots, the active agent was released from the particles in the acidic solution. Therefore, by protonating the surfaces of the microcrystals, the active agent desorbs from the crystal surfaces.

The conditions of series [5]: at the concentrations used; cited from earlier work.
Series [6] is described as follows: Saturation curves for adsorption of active agent onto FDKP microparticles at pH 5.0. In kind it is physicochemical. Conditions: pH 5.0, constant 5 mg/mL FDKP microparticles (FIGS. 7A-7D). As for the experimental part:
When the hydration water is displaced by adsorption of the active agent, its structure relaxes and produces a net decrease in the ultrasonic velocity through the sample. […] These studies were conducted at pH 5.0 where optimal adsorption of the active agent to microparticles is observed.

Series [7] in a line: Adsorption onto FDKP microparticles at pH 5.0 with increasing salt (sodium chloride). It counts as physicochemical. Conditions: pH 5.0, 5 mg/mL FDKP microparticles, sodium chloride (FIGS. 8A-8D). As for the experimental part: Each sample contained a different quantity of salt (sodium chloride), as indicated under each bar in FIGS. 8A-8D (units are mM). […] After a brief incubation, unbound active agent was removed by filtration and the particles with adsorbed active agent were redissolved. The amount of active agent and particle recovered was quantitated by HPLC, and expressed as a mass ratio (% loading).
This can be interpreted as evidence that the salt competed with the active agent for interaction with the particle surface. As the salt concentration was increased, it competed strongly and effectively for surface binding sites, and essentially displaced the active agent from the particle surfaces. It is also speculated, that decrease binding of the active agent to microparticle may be attributable to Debye shielding.

Where no end group is shown, it is not given here. A value given as a limit tells only on which side of the number the result lay.

For the substance “insulin: protein active agent adsorbed onto FDKP microparticles”, the “pH at which substantially complete binding is achieved” value in series [1] (insulin on FDKP particles) is no less than 4.2. Further, the “insulin adsorbed from solution onto the particles” value in series [1] (pH 3.6) was “approximately 75%”. For the same substance, the “pH of association of protein with FDKP microparticles” value in series [2] is recorded as “greater than 2.9”. In addition, the “pH dependence of adsorption” value in series [3] (5 mg/mL FDKP particles at varying pH, excess active agent (FIGS. 4A-D)) was “increased as a function of pH”. Besides, the “type of monolayer formed” value in series [3] (pH 3.5 through pH 4.5) was “non-continuous monolayers”. Also, the “type of monolayer formed” value in series [3] (pH 5.0) was “continuous monolayer”. Also, in series [4], the “Resuspended in Acidic solution, integrated HPLC peak area” value came out at 980 mAU * sec; the “Resuspended in water, integrated HPLC peak area” value came to 4 mAU * sec; the “Redissolved after filtering away acidic solution, integrated HPLC peak area” value came to 49 mAU * sec; the “Redissolved after filtering away water, integrated HPLC peak area” value was determined as 936 mAU * sec. Also, the “Active Agent Standard solution, integrated HPLC peak area” value in series [4] is reported as 1103 mAU * sec.

As for GLP-1: glucagon-like peptide 1, the self association entry in series [5] is “does not self associate”. Also, the “adsorption as active agent concentration is increased” value in series [6] is “reached saturation”.

As to “ghrelin: ghrelin, active agent adsorbed onto FDKP microparticles (GSSFLSPEHQRVQQRKESKKPPAKLQPR; ends and bridges not checked; UniProt Q9UBU3 24-51, looked up)”, in series [7], the “effect of increasing ionic strength on adsorption” value was “reduced the extent of adsorption”.

As for PTH: parathyroid hormone, the “effect of increasing ionic strength on adsorption” value in series [7] is “reduced the extent of adsorption”. For the same substance, the “adsorption as active agent concentration is increased” value in series [6] is “reached saturation”.

With “Insulin Aspart: a fast-acting type of insulin”, in series [4], the “Resuspended in Acidic solution, integrated HPLC peak area” value was 893 mAU * sec; the “Resuspended in water, integrated HPLC peak area” value is 0 mAU * sec; the “Redissolved after filtering away acidic solution, integrated HPLC peak area” value was found to be 29 mAU * sec; the “Redissolved after filtering away water, integrated HPLC peak area” value is listed as 982 mAU * sec. Moreover, the “Active Agent Standard solution, integrated HPLC peak area” value in series [4] was 1099 mAU * sec.
